B1: 1F (antibody, human IgG1, V domains shown)
VH: EVQLLESGGGLVQPGGSLRLSCAASGFTFSDYAMGWVRQAPGKGLEWVSTISGSGGLTYYADSVKGRFTISRDNSKNTLYLQMNSLRAEDTAVYYCAKAPYGYYMDVWGKGTTVTVSS
VL: not shown
B2: 25A (antibody, human IgG1, V domains shown)
VH: QVQLVQSGAEVKKPGASVKVSCKASGYTFDVYGISWVRQAPGQGLEWMGWIAPYNGNTNYAQKLQGRVTMTTDTSTSTAYMELRSLRSDDTAVYYCARDAGTYSPFGYGMDVWGQGTTVTVSS
VL: DIQMTQSPSTLSASVGDRVTITCRASQSISSWLAWYQQKPGKAPKLLIYKASSLESGVPSRFSGSGSGTEFTLTISSLQPDDFATYYCQQFQSLPPFTFGGGTKVEIK
B3: 29E (antibody, human IgG1, V domains shown)
VH: QVQLVESGGGVVQPGRSLRLSCAASGFTFRSYGMHWVRQAPGKGLEWVAVITYDGINKYYADSVEGRFTISRDNSKNTLYLQMNSLRAEDTAVYYCARDGVYYGVYDYWGQGTLVTVSS
VL: not shown
B4: TF-011 (antibody, V domains shown)
VH: EVQLLESGGGLVQPGGSLRLSCAASGFTFSNYAMSWVRQAPGKGLEWVSSISGSGDYTYYTDSVKGRFTISRDNSKNTLYLQMNSLRAEDTAVYYCARSPWGYYLDSWGQGTLVTVSS
VL: DIQMTQSPPSLSASAGDRVTITCRASQGISSRLAWYQQKPEKAPKSLIYAASSLQSGVPSRFSGSGSGTDFTLTISSLQPEDFATYYCQQYNSYPYTFGQGTKLEIK
B5: 5G9 (humanized TF8-5G9, CNTO 860) (antibody, V domains shown)
VH: QVQLVESGGGVVQPGRSLRLSCKASGFNIKDYYMHWVRQAPGKGLEWIGLIDPENGNTIYDPKFQGRFTISADNSKNTLFLQMDSLRPEDTAVYYCARDNSYYFDYWGQGTPVTVSS
VL: DIQMTQSPSSLSASVGDRVTITCKASQDIRKYLNWYQQKPGKAPKLLIYYATSLADGVPSRFSGSGSGTDYTFTISSLQPEDIATYYCLQHGESPYTFGQGTKLEIT
B6: 39A (antibody, human IgG1, V domains shown)
VH: QVQLVQSGAEVKKPGSSVKVSCKASGGTFSSNAIGWVRQAPGQGLEWMGSIIPIIGFANYAQKFQGRVTITADESTSTAYMELSSLRSEDTAVYYCARDSGYYYGASSFGMDVWGQGTTVTVSS
VL: EIVMTQSPATLSVSPGERATLSCRASQSVSSNLAWYQQKPGQAPRLLIYGASTRATGIPARFSGSGSGTEFTLTISSLQSEDFAVYYCEQYNNLPLTFGGGTKVEIK
B7: 1F (antibody, human IgG1, V domains shown)
VH: B1 VH
VL: not shown
B8: 29E (antibody, human IgG1, V domains shown)
VH: B3 VH
VL: not shown
B9: TF-011 (antibody, V domains shown)
VH: B4 VH
VL: B4 VL
B10: 5G9 (humanized TF8-5G9, CNTO 860) (antibody, V domains shown)
VH: B5 VH
VL: B5 VL

The binders below were run against Relipidated TF (Tissue Factor) (UniProt P13726 33-295, limits assumed) (assay: cell-based or functional assay).

In order of falling “% ETP, Ab 10 nM” value:
1. B3  95%
2. B1  86%
3. B4  85%
4. B6  84%
5. B5  58%

In order of falling “% Peak IIa, Ab 10 nM” value:
1. B2  97%
2. B3  71%
3. B1  47%
4. B4  47%
5. B6  37%
6. B5  24%

In order of falling “% Peak IIa, Ab 50 nM” value:
1. B2  95%
2. B3  29%
3. B4  12%
4. B6  11%
5. B1  9%
6. B5  8%

In order of rising “% Peak IIa, Ab 100 nM” value:
1. B1  8%
2. B5  8%
3. B6  9%
4. B3  24%
5. B2  95%

In order of falling “% ttPeak, Ab 10 nM” value:
1. B5  135%
2. B6  135%
3. B1  89%
4. B4  86%
5. B3  48%
6. B2  4%

In order of rising “% ttPeak, Ab 50 nM” value:
1. B2  9%
2. B3  186%
3. B4  284%
4. B5  338%
5. B1  347%
6. B6  397%

In order of rising “% ttPeak, Ab 100 nM” value:
1. B2  9%
2. B3  232%
3. B4  353%
4. B5  401%
5. B1  419%
6. B6  465%

In order of falling “ETP [nM · min], Ab 10 nM” value:
1. B2  2110 nM·min
2. B3  1930 nM·min
3. B1  1740 nM·min
4. B4  1710 nM·min
5. B6  1690 nM·min
6. B5  1180 nM·min

In order of falling “Lag Time [min], Ab 10 nM” value:
1. B6  10.8 min
2. B5  10.4 min
3. B1  8.2 min
4. B4  8 min
5. B3  7 min
6. B2  5 min

In order of falling “Lag Time [min], Ab 50 nM” value:
1. B6  29.8 min
2. B1  25.6 min
3. B5  25.1 min
4. B4  21.3 min
5. B3  14.1 min
6. B2  5.2 min

In order of falling “Lag Time [min], Ab 100 nM” value:
1. B6  34.7 min
2. B1  31 min
3. B5  29.9 min
4. B3  17.1 min
5. B2  5.2 min

In order of falling “Peak IIa [nM], Ab 10 nM” value:
1. B2  322 nM
2. B3  235 nM
3. B4  156 nM
4. B1  155 nM
5. B6  122 nM
6. B5  79 nM

In order of rising “Peak IIa [nM], Ab 50 nM” value:
1. B5  28 nM
2. B1  31 nM
3. B6  36 nM
4. B4  39 nM
5. B3  95 nM
6. B2  317 nM

In order of rising “Peak IIa [nM], Ab 100 nM” value:
1. B1  25 nM
2. B5  27 nM
3. B6  29 nM
4. B4  30 nM
5. B3  81 nM
6. B2  317 nM

In order of falling “ttPeak [min], Ab 10 nM” value:
1. B5  18.6 min
2. B6  18.6 min
3. B1  14.9 min
4. B4  14.7 min
5. B3  11.7 min
6. B2  8.2 min

In order of rising “ttPeak [min], Ab 50 nM” value:
1. B2  8.6 min
2. B3  22.6 min
3. B4  30.3 min
4. B5  34.6 min
5. B1  35.3 min
6. B6  39.3 min

In order of falling “ttPeak [min], Ab 100 nM” value:
1. B6  44.6 min
2. B1  41 min
3. B5  39.6 min
4. B4  35.8 min
5. B3  26.2 min
6. B2  8.6 min

In order of rising “ETP [nM · min], Ab 50 nM” value:
1. B3  1360 nM·min
2. B2  2120 nM·min

In order of rising “ETP [nM · min], Ab 100 nM” value:
1. B3  1260 nM·min
2. B2  2130 nM·min

In the case of B3, the “% ETP, Ab 50 nM” value is reported as 67%.

B3 was tested, and the “% ETP, Ab 100 nM” value was 62%.

Each binder was assayed against Relipidated TF (UniProt P13726 33-295, limits assumed) (assay: cell-based or functional assay).

In order of rising “% ETP, TGA 10 min pre-incubation, 10 nM Ab” value:
1. B7  41%
2. B8  77%

In order of falling “% Peak IIa, TGA […] min pre-incubation, 10 nM Ab” value:
1. B8  36%
2. B7  16%
3. B10  11%

In order of falling “% Peak IIa, TGA […] min pre-incubation, 50 nM Ab” value:
1. B8  30%
2. B9  10%
3. B7  8%
4. B10  8%

In order of rising “% Peak IIa, TGA […] min pre-incubation, 100 nM Ab” value:
1. B7  7%
2. B10  8%
3. B8  28%

In order of rising “% ttPeak, TGA 10 min pre-incubation, 10 nM Ab” value:
1. B8  159%
2. B7  220%
3. B10  314%

In order of falling “% ttPeak, TGA 10 min pre-incubation, 50 nM Ab” value:
1. B7  433%
2. B10  386%
3. B8  237%

In order of falling “% ttPeak, TGA 10 min pre-incubation, 100 nM Ab” value:
1. B7  483%
2. B10  436%
3. B8  247%

In order of rising “ETP, TGA 10 min pre-incubation, 10 nM Ab” value:
1. B7  742 nM·min
2. B8  1410 nM·min

In order of rising “Lag Time, TGA 10 min pre-incubation, 10 nM Ab” value:
1. B8  9.4 min
2. B7  13.8 min
3. B10  19.3 min

In order of falling “Lag Time, TGA 10 min pre-incubation, 50 nM Ab” value:
1. B7  26.5 min
2. B10  23.6 min
3. B8  14.1 min

In order of falling “Lag Time, TGA 10 min pre-incubation, 100 nM Ab” value:
1. B7  29.5 min
2. B10  26.7 min
3. B8  14.7 min

In order of rising “Peak IIa, TGA […] min pre-incubation, 10 nM Ab” value:
1. B10  30 nM
2. B7  44 nM
3. B8  98 nM

In order of rising “Peak IIa, TGA […] min pre-incubation, 50 nM Ab” value:
1. B7  23 nM
2. B10  23 nM
3. B8  83 nM

In order of rising “Peak IIa, TGA […] min pre-incubation, 100 nM Ab” value:
1. B7  20 nM
2. B10  22 nM
3. B8  76 nM

In order of rising “ttPeak, TGA 10 min pre-incubation, 10 nM Ab” value:
1. B8  18.1 min
2. B7  22.4 min
3. B10  29 min

In order of falling “ttPeak, TGA 10 min pre-incubation, 50 nM Ab” value:
1. B7  37.3 min
2. B10  34 min
3. B8  23.6 min

In order of falling “ttPeak, TGA 10 min pre-incubation, 100 nM Ab” value:
1. B7  40.8 min
2. B10  37.5 min
3. B8  24.3 min

B8 was tested, and the “% ETP, TGA 10 min pre-incubation, 50 nM Ab” value was 72%.

In the case of B8, the “% ETP, TGA 10 min pre-incubation, 100 nM Ab” value is reported as 66%.

For B8, the “ETP, TGA 10 min pre-incubation, 50 nM Ab” value was 1300 nM·min.

For B8, the “ETP, TGA 10 min pre-incubation, 100 nM Ab” value was 1200 nM·min.

— US20240166765A1 (ICONIC THERAPEUTICS, published 2024)
